For the data set, the target named is T1, JAVL (JAVL_A) (UniProt A0A1U8LLK1 1-170).
T1 sequence: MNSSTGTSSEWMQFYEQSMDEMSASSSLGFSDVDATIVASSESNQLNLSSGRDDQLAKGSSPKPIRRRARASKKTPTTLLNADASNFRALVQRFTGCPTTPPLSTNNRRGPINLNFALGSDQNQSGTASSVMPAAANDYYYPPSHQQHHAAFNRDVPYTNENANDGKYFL
As to the kind of experiment: EMSA; EMSA: 30 °C for 30 min, then 5% native PAGE in Tris/borate/EDTA, 10 V/cm, 4 °C; 10x and 100x cold competitor; binding buffer, salt and pH not stated. The following applies: protein: recombinant; tags: His (pET32a); label: Cy5; blunt (duplex implied, only one strand printed). For orientation: In EMSA bound probe runs differently from free probe, usually more slowly.

B1: AOS promoter G-box probe (dsDNA)
DNA 1: TTATGGCTGTAAAAACGTGCGAATTCATGGAG
DNA 2: CTCCATGAATTCGCACGTTTTTACAGCCATAA
Consider B1, for which the binding result is given as “binds”.

B2: GoPGF promoter G-box probe (dsDNA)
DNA 1: AACAGGAGATTTCCACGTGATAATGATGTCAA
DNA 2: TTGACATCATTATCACGTGGAAATCTCCTGTT
For B2, the binding result is given as “binds”.
